Data taken from patent US20110150914A1, “COMPOSITIONS AND METHODS FOR DENGUE VIRUS (DV) TREATMENT AND VACCINATION” (priority 2008, published 2011).

What was measured:
[1] = biological target: H-2 D^b (mouse; human), P61769
[2] = biological target: H-2 K^b (mouse; human), P61769

B1: M60-67 (peptide)
peptide: RALIFILL
modifications: not checked
What does the source list for B1?
IC50 [1]: > 2000 nM; IC50 [2]: 22 nM

B2: NS4B99-107 (peptide)
peptide: YSQVNPITL
modifications: not checked
Which results are given for B2?
IC50 [1]: 1.3 nM; IC50 [2]: 1890 nM

B3: C36-44 (peptide)
peptide: GMLQGRGPL
modifications: not checked
B3 was tested. Which IC50 [1] did it give?
Its IC50 is 820 nM.

And the IC50 [2]?
Its IC50 is 1340 nM.

B4: E451-458 (peptide)
peptide: VSWTMKIL
modifications: not checked
With B4 as the binder, how does the IC50 [2] read?
Its IC50 is 458 nM.

B5: NS5237-45 (peptide)
peptide: RMLINRFTM
modifications: not checked
Which IC50 [1] does the source give for B5 here?
The IC50 was 21 nM.

And the IC50 [2]?
The IC50 was > 2000 nM.

B6: C51-59 (peptide)
peptide: VAFLRFLTI
modifications: not checked
Which IC50 [1] does the source give for B6 here?
The IC50 was 1380 nM.

What about the IC50 [2] of the same binder?
Its IC50 is 20 nM.

B7: NS2A8-15 (peptide)
peptide: FSLGVLGM
modifications: not checked
Which IC50 [1] does the source give for B7 here?
The IC50 was 1800 nM.

B8: E-2-6 (peptide)
peptide: MTMRCIGI
modifications: not checked
With B8 as the binder, how does the IC50 [2] read?
The IC50 was 1080 nM.

B9: NS4B66-74 (peptide)
peptide: TAIANQATV
modifications: not checked
How did the IC50 [1] turn out when B9 was run?
Its IC50 is 1.3 nM.

What about the IC50 [2] of the same binder?
Its IC50 is > 2000 nM.

B10: NS2A36-44 (peptide)
peptide: VAVSFVTLI
modifications: not checked
B10 was tested. Which IC50 [1] did it give?
Its IC50 is 997 nM.

What about the IC50 [2] of the same binder?
Its IC50 is 12 nM.

B11: NS2A145-153 (peptide)
peptide: LAVTIMAIL
modifications: not checked
With B11 as the binder, how does the IC50 [1] read?
The IC50 was 644 nM.

And the IC50 [2]?
Its IC50 is > 2000 nM.
